Reference: publication PMC7840905

Experiments:
[1] = target: SARS-CoV-2 Nsp15 H235A (SARS-CoV-2); assay: cryo-EM structure
[2] = target: SARS-CoV-2 Nsp15 H235A (SARS-CoV-2); assay: SEC
[3] = target: SARS-CoV-2 Nsp15 H250A (SARS-CoV-2); assay: SEC

Substance	stoichiometry N [1]	stoichiometry N [2]	stoichiometry N [3]
SARS-CoV-2 Nsp15 H235A (enzyme)	6	6	–
SARS-CoV-2 Nsp15 H250A (enzyme)	–	–	6
